Laboratory results reported in paper doi:10.1101/2024.06.23.600241 (bioRxiv, 2024).

Assays:
[1] = target: T1, PvDBP-RII subdomain 3 (Plasmodium vivax, UniProt P22290 211-508); assay: SPR
T1 chain: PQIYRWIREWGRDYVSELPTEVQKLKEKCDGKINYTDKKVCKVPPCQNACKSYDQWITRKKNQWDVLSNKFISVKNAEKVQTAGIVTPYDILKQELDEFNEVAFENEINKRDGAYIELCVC

[2] = target: T2, Plasmodium vivax Duffy binding protein region II (PvDBP-RII) (Plasmodium vivax, UniProt P22290 211-508); assay: SPR
T2 chain: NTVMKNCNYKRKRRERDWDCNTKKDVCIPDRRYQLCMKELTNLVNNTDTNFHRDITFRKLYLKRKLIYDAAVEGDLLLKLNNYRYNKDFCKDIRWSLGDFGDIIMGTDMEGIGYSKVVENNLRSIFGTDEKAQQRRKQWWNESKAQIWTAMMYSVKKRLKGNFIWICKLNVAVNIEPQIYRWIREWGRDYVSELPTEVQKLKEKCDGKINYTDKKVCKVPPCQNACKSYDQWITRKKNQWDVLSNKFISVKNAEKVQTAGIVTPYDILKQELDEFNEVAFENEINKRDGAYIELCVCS

[3] = target: T3, PvDBP-RII subdomain 3 (Plasmodium vivax Salvador I, UniProt P22290); assay: SPR; Biacore T200; DB9 captured on a CM5 chip amine-coupled with protein A/G; analytes flowed in a two-fold dilution series from 1 μM; 20mM HEPES pH 7.4, 150mM NaCl, 0.005% Tween-20; details: both partners purified
T3 construct: also called SD3; not shown: His-tag, N-terminal, cleaved

[4] = target: T4, Plasmodium vivax Duffy binding protein region II (PvDBP-RII) (Plasmodium vivax Salvador I (strain as …, UniProt P22290)); assay: as above; details: both partners purified
T4 construct: The tag and its TEV cleavage hold only if the pET15b construct was the one used; SalI is named only for the transgenic parasites; also called RII region of PvDBP; source: the same paragraph also says cloned into modified pET15b, expressed in E. coli BL21-DE3; not shown: His-tag, N-terminal, cleaved

B1: monoclonal antibody DB9 (antibody, V domains shown)
VH: EVQLQESGPGLVKPSETLSLTCTVSGGSVSSSTYYWGWVRQPPGKGLEWIGSIYYSGSTYYNPSLKSRVTISVDTSKNQFSLKLSSVTAADTAVYYCARDGTGALDLWGRGTLVTVSS
VL: DIVMTQSPSTLSASVGDRVTITCRASQSISSWLAWYQQRPGKAPRLLIYKASSLLSGVPSRFGGSGSGTDFTLTISSLQPDDFATYHCQHYNTYPWTFGQGTKVEIK
notes: the Fab part of the heavy chain is in PDB 6R2S and PDB 9EZE; the light chain is in PDB 6R2S and PDB 9EZE
- koff [1]: 0.00172 s⁻¹
- koff [2]: 0.000976 s⁻¹
- Kd [3]: 1.11 nM
- Kd [4]: 2.63 nM
